Results reported in the nanobody polyreactivity screen of Harvey et al. (2022).

Assay: yeast display, Sf9 membrane polyspecificity reagent, FACS + sequencing; frameworks hold sequencing errors
How it was run: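 Synthetic nanobody libraries on Saccharomyces cerevisiae BJ5465 were galactose-induced for 36–48 hours, stained 1 hour at 4 °C with 10% biotinylated, detergent-solubilized Sf9 membrane reagent and enriched on streptavidin microbeads. FACS then separated cells into low and high (top ~1%) gates by anti-HA (expression) and streptavidin (reagent binding) fluorescence. Genes were colony-PCR amplified, MiSeq 2 × 250 sequenced and CDR-length filtered. A clone's polyreactivity label is that of its gate of origin.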

Sequence	polyreactivity (PSR sort gate)
QVQLQESGVRMVQAGGSLRLSCAASGNIFLGDTMGWYRQAPGKEREFVAGIARGGNPYYADSEKGRLTISRNNANNTVYLEKISLKPEDSAVHYCSVQRSDASDYNYWGQGTQVTVIS	low polyreactivity
QVQLQESRGGLVQAGGSLRLICAASGSISCPHVMGWYRQAPGKEREFVAAINVGANTYYADNVKGRFTISRDNAKNTVYLQKNSLKPEATAVYYCAAVYYGDIGHEYWGQGTQVTVSC	low polyreactivity
QVQLQESVGGLVQADGSLRLSCAASGTIFTQSYMGWYRQAPGKEREFVAGISNGTKTNYGDSVKGRFTISRDNAKNTVYLQMHRLKLEDTAVYYCAVKGFYVDVLAYWGQGTHVTVSS	high polyreactivity
QVQLQESVGLVQAGGLRLSCAASGSVSYQEAMGWYRQAPAKERELVATISFGANTNYADSVKGRFTISRDNAKNTVYLQMNCLKPEDTAVYYCAAESLFDDYYGYWGQGTQVTVSS	low polyreactivity
QVQLQGSGAGLVQAGGSLRLSCAPSGYILQNVPMGWNRQAPGKERELVAGIDNGTSTNYADSVNGSFTISRDNAKNTVYLQMNSLKPEDTAVYYCAAAGQADETLGYWGQGTQVTVSR	low polyreactivity
QVQLQGSGGGLAQAGDSLRLSCAASGTIFSEYNNGLVSPGAGQRTRTCCRYWCWGNTYYADSAKGRFTTSRDNANNTVYLQKNSLIPEDTAVYYCAFNRPYPSRHIYRGQGTQVTVSS	high polyreactivity
QVQLQVSGGDLVPAGGSLRLSCAGSGTIYGLTSMAWYRQAPGKEREFVAAITDGGNANYADSVKGRFTISRDNAKNTVYLQMISLKPEDTAVYYCAVLFSDDAYYAYWGQGTQVTVSS	low polyreactivity
QVQLQVSGGDLVQAGGSLRMSCAASGTIYGLTSMGWNRQAPGKEREFVAAITDGGNTNYADSVKGRFTISRDNAKNTVYLQMISLKPEDTAVFYCAVLFSDDAYYAYWGQGTQVNVSS	low polyreactivity
QVQLRESGAGGRQPAPELRCERQYFYWSADGLVSQPPGKEREFVAGIDRGTITNYADSVRGRFTISRDNAKNTVYLQMNSLKPEDTAVYYCNAEYRRRPKLGDEDEYWGHGTQVTVSS	high polyreactivity
QVQLRESGCGLVQAGGNLRLSCAASGNIFDADIMGWYGQAPGKERELVASITEGGSTNYADSVRCRFTISRDNAKNTVYLQMISLKPEDTAVYYCTAIAYPDIPTYFDHDSDYFYWGQGTQVTVSS	high polyreactivity
QVQLRESGCGLVQAGGNLRLSCAASGNIFDADIMGWYRQAPGKERELVASITDGGSTYYADSVRCRFTISRDNAKNTVYLQMNSLKPEDTAVYYCTAIAYPDIPTYFDHDSDYFYWGQGTQVTVSS	high polyreactivity
QVQLRESGGGLVQAGGSLRLSCAASGRIFSVYAMGWDRQAPGKERELVAAITRVGSTNYADSVKGRFTISRDNAKNTVYLQMNSLKPEDTAVYYCAARSTGYPTGRMYYWGQGTQVTVSS	high polyreactivity
QVQLRESGGGLVQAGGSLRLSCAASGRILYSYAMGWYRQAPGKERELVAAISWRGGPTYYADSVKGRFTISRDYAKNSVYLPMNSLKPEDTAVYYCAAEFYDLPWLYDYWGQGTQVTVSS	low polyreactivity
QVQLVASGGGLLQAGGSLRLSCAASGIIFDRYTMGWYRQAPGKERELVASISDDDGSTYYADSVKGRFTISRDNAKNTVYLQMNSLTPEDTAVYYCKALSIIFDYWGQATQVTVSS	low polyreactivity
QVQLVASGGGLVHAGGSLRLSCAASGRIFTHNAMGWSRQAPGKEREMVAAITSGGRTTYADSVKGRFTISRDNAKNTVYFQMNSLKPEDTAVYYCNADTGLGSLDFDKRDYWGQGTQVTVSS	low polyreactivity
QVQLVASGGGLVQTGGSLRLSCAASGSTCVWYTIGWYRQAPGKERELVADISRSGGSTYYADSVKGRFTISRDNAKKTIYLQKNSLKAEDTAVYYCARYGYVYNTREPPKVVTFDYSGQGTQVTVSS	high polyreactivity
QVQLVASRGGLVQAGGILRLSSAASGSTFPSYEMGWYRQARGKERELVAAINSGRGSNYADSVKGRFTISRDNAKNTVYLQMNCLIPDDTAVYYCGISRYDYTNTEGGYWGQGTQVTVSS	low polyreactivity
QVQLVDSAGGLVQAGGILRLSCAASGFTFDAKSRGWYRQAPGTERELVDAISLSDGSTYYADSVKGRFTISRDNAKNTVYLQMNSLKPEDTAVYYCNAERFGSGLAWLLFDYWGQGTQVTVSS	low polyreactivity
QVQLVDSAGGLVQAGGSLRLSCAASGFIFRRNAMGWYRQAPGKERELVAGINRSGTRTYYADSVKGRFTISRDNAKNTVNLQMNSLKPEDTAVYYCAALVYRPTYGYIFDYWGQGTQVTVSS	high polyreactivity
QVQLVDSAGGLVQAGGSLRLSCAASGSIFFRYAMGGYRQAAGKERELVAAITQRTGSTYYADSVKGRFTISRDNAKITVYLQMNSLKPEDTAVYYCAAKRWRRSFTGNYWGQGTQVTVSS	high polyreactivity
QVQLVDSAGGLVQAGGSLRLSCAASGSIINSNAMGWYRQAPGKERELVAAINWRGGSTYYADSVKGRFTISRDNAKNTVYLQMNSLKPEDTAVYYCNALRRAPRAEYYYGGQGTQVTVSS	high polyreactivity
QVQLVDSAGGLVQAGGSLSLSCAASGFIFGRYAMGWYRQAPGKERELVAVITWSGGRTYYADSVKGRFTISRDNAKNTVYLQMNSLKPEDTAVYYCAADRYPYHYGYDYWGQGTQVTVSS	high polyreactivity

Sequence	polyreactivity (PSR sort gate)
QVQLVDSGGCLVQAGGSHRLSCSASGRIYPWYAMVWYRQAPGKERELVASITRNGGDTYYADSVKGRFTISRDNAKNTVYLQMNSLKPEDTAVYYCNAVRGYWFRQKDTIELGYWGQGTQVTVSS	high polyreactivity
QVQLVDSGGGFVQAGGSLRLSCAASGFIFRSYAMRWYRTAPGKERELVAAITKSGGRTYYADSVKGRFTISRDNAKNTVYLQMNSLKPEDTAVYYCAADGAYGGYDYWGQGTLVTVSS	low polyreactivity
QVQLVDSGGGIVQAGGSLRLRCAASGFTFDFYAMGWYRQAPGKERELVADISSSDGSTYADSVKGRFTISRDNAKNTVYLQMNSLNPEDTAVYYCAADYDNQYDFSLDDEYWGQVTQVTVSS	low polyreactivity
QVQLVDSGGGIVQAGGSLRLSCPASGITFPKYAMGWYRQAPGKERELVAAITKSSGSTYYADSVKGRFTISRDNAKNTVYLQMKSLKPEDTAVYYCAARRVNHIRSYSYVSNYGYWGQGTQVTVSS	high polyreactivity
QVQLVDSGGGIVQAGGSLRVSCAASGRTFWYYTMGWYIQAPGKERELVAAITSGGSKYYSDSVKGRFTISRDNAKNTVYLQMISLNPEDTAVYYCAAYLLPAYSRISNDYWGQGTQVTVSS	high polyreactivity
QVQLVDSGGGKVQAGGSLRLSCAASGITFSRNAMGWYRQAPGKEMELVAAITWNGGRTYYADSVKGRFTISRDNAKNTVDLQMNSLKPEDTAVYYCAADSGTRNLASYRYYYWGQGTQGTVSS	high polyreactivity
QVQLVDSGGGLFQAGGSLRLSCAASGRTFVGYSMGWYRQAPGKEMEVVATITNDDITYADSVKGRFTISRDNAMNTVYLQMNSLNPEETAVYYCNTSYSYGTAYEQYRYKALYDYWGHGTQVTVSS	low polyreactivity
QVQLVDSGGGLGQVGGSRRVSCAASGRTFWWYPMGWYRQSPGKERELVAAISRGSTNYADSVKGRFAISRDNAKNTVYLQMNSQKPEDTAVYYCAAYVVWLYGYDYGGQGTQVTVSS	low polyreactivity
QVQLVDSGGGLLQAGASLRLSCAASGITFYINAMGWYRQPPGKERALVAVIDSRGSSTFYADSVKGRFTISRHNAKNSVYLQMNSLKPEYTAVYYCAAEPDTYWYTYDYWGQRTQVTVSS	low polyreactivity
QVQLVDSGGGLLQAGGILSLSCAASGSIFPYYAMGWYRQAPGKERELVAVITTVGGSTYYADSVKGRFTISRDNAKYTVYLQMNSLKPEDTAVYYCADEEDYIYFYFSMDYWGQGTQVTVSS	low polyreactivity
QVQLVDSGGGLVQAGGILRLSCAASGFIFKKNAMGWYRQAHGKEREFVAAITSSGGSTYYADSVKGRFTISRDNAKNTVYLQMNSLKPEDTAVYFCARGTSWWRSRSITFTYDYWGQGTQVTVSS	high polyreactivity
QVQLVDSGGGLVQAGGILRLSCAASGRTFTYYTMGWYRQAPGKESEMVAAITWSGGRTYYADSVKGRFTISRDNAKNTVYLQMNILKPEDTAVYYCAAYEIYYEFDSWGQGTQVTVSS	low polyreactivity
QVQLVDSGGGLVQAGGILRLSCAASGSTFRRYSMGWYRHAPGKQRELVAAISGRGGSTSYADSVKGRFTISRDNAKNTVYLQINSLKPEDTAVYYCAADDKYFYPGNGYWGQGTQVTVSS	high polyreactivity
QVQLVDSGGGLVQAGGILRLSCAASGSTFRYYAMGWYRQAPGKERELVAAITKNGGSTYYADSVKGRFTISRDNAKNTVYLQMNSLKPEDTAVYYCAVQFSYSGWYYVSYYYWGQGTQVTVSS	high polyreactivity
QVQLVDSGGGLVQAGGRLRLSCAASGFTFPSNAMGWYRKAPGKERQLVASINQRGGSTYYADSVKGRFTISRDNAKNTVYLQMNSLKPEDTAVYYCAAGPTSRRWYDYWGQGTQVTVSS	high polyreactivity
QVQLVDSGGGLVQAGGRLRLSCAASGSIYAAYTMGRYRQAPGKERELVAAISVSTVSTYYADSVKGRFTISRDNAKNTVYLQMNSLKPDDTAVYYCNADATYSYPEKDEPDSWGQGTQVTVSS	low polyreactivity
QVQLVDSGGGLVQAGGSHRLSCAASGLTFRKYPMGWYRQAPGKERELVATISRNGGSTYYADSVKGRFTISRDNAKNTVYFQMNSLKPEDTAVFYCAADYYNYDYAGYGYWGQVTQVTVSS	high polyreactivity
QVQLVDSGGGLVQAGGSLCLSCPASGGTSRVNAMGWYRQAPGKETELVARIRSGGSTYYADSVKGRFTISRDNAKNTVYFKMNRLKPEDTAVYHCAAVPRRTGQQQDMDYWGQGTQVTVSS	high polyreactivity
QVQLVDSGGGLVQAGGSLLLSCAASGSTYKFYAMGWYRQAPGKERELVASITSSSGPTYYADSVKGRFTISRDNAKNTVYLQMKSLKPEDTAVYYCAKRPIRYYHLLRGNYWGQGTQVTVSS	low polyreactivity
QVQLVDSGGGLVQAGGSLRESCAASGSTFYYNDMGWSRQAPGKDRELVAAIRTSGSTNYAESVKGRFTLSRDNAKNTVYLQMNSLKPEDTEVYYCNAVVRHWFPGWYGRGDDYWGQGTQVTVSS	low polyreactivity
QVQLVDSGGGLVQAGGSLRLGCAASGRIFAGYGMGWYRQAPGKERELVATITSGGSTYYADSLKGRFTISRDNAKNTVYLQMNSLKPEDTAVYYCNRYFSEALLHGSSYNRYYYWGQGTQVSVSS	low polyreactivity
